The values that follow come from paper PMC12775068.

The target in the test is MUC2C-N (human MUC2 residues 4256-4803, C4786A; PTS3, VWCN, D4 and VWC1) (human). The test can be described thus: cross-linking.

“MUC2C-N (human MUC2 residues 4256-4803, C4786A; PTS3, VWCN, D4 and VWC1) (domain or fragment)” yielded a stoichiometry N of 2.
